Results: patent publication US20250188188A1

How the values were obtained:
[1] = molecular target: recombinant human ProC1s with Arg437 mutated to glutamine (hProC1s_RQ), C-terminal spacer and 10 histidines (human); experiment: SPR
[2] = molecular target: active human C1s purified from human serum (CompTech, Tyler, TX, catalog number A104) (human) (UniProt P09871); experiment: SPR
Chain of active human C1s purified from human serum (CompTech, Tyler, TX, catalog number A104) (human) (P09871 16-437, chain 1 of 2): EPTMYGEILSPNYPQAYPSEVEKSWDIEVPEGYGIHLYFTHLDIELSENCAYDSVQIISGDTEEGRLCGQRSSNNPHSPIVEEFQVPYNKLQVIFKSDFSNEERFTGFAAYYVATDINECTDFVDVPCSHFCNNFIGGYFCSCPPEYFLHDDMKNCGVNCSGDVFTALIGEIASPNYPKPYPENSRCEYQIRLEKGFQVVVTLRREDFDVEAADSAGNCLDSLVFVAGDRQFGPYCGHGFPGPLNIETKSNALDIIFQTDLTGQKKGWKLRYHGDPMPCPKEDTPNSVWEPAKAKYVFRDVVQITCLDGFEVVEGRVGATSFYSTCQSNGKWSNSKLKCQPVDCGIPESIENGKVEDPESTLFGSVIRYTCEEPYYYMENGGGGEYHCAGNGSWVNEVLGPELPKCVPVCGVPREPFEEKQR
Chain of active human C1s purified from human serum (CompTech, Tyler, TX, catalog number A104) (human) (P09871 438-688, chain 2 of 2): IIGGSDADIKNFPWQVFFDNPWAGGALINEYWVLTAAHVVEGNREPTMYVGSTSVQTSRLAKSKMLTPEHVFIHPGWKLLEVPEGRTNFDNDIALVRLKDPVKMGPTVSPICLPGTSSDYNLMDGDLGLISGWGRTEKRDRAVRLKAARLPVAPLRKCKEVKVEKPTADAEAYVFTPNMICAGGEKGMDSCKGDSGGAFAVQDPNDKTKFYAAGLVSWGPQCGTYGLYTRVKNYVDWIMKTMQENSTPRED

Chain of recombinant human ProC1s with Arg437 mutated to glutamine (hProC1s_RQ), C-terminal spacer and 10 histidines (human) (chain, as listed by the source limits assumed, change not shown, form in doubt): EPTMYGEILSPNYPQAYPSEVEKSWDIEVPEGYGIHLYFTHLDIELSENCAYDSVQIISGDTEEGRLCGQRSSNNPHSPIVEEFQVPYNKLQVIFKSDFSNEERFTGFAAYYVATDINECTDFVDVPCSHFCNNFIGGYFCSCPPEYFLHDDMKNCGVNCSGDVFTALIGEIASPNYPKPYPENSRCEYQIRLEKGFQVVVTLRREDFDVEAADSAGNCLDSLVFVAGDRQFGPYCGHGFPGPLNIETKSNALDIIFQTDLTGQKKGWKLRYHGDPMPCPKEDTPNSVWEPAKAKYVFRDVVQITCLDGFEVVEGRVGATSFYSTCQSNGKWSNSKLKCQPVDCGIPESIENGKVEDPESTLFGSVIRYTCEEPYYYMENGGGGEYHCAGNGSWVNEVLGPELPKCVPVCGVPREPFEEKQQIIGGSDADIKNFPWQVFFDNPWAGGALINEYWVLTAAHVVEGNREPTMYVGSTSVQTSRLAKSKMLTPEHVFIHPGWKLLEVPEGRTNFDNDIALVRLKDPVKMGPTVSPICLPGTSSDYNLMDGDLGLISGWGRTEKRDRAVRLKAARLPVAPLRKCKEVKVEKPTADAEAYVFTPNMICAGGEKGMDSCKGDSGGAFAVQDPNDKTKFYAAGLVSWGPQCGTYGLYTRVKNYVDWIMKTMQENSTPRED

recombinant sutimlimab/BIVV009/TNT009 (antibody)
Kd [1]: 0.4 nM | Kd [2]: 0.25 nM
